In publication PMC8694623 (Science Advances, 2021):

B1: Atm1-L657 truncation mutant (residues 92 to 656), C-terminally Strep-tagged (domain or fragment, S. cerevisiae, UniProt P40416 92-656, looked up)
chain: LKDLFRYIWPKGNNKVRIRVLIALGLLISAKILNVQVPFFFKQTIDSMNIAWDDPTVALPAAIGLTILCYGVARFGSVLFGELRNAVFAKVAQNAIRTVSLQTFQHLMKLDLGWHLSRQTGGLTRAMDRGTKGISQVLTAMVFHIIPISFEISVVCGILTYQFGASFAAITFSTMLLYSIFTIKTTAWRTHFRRDANKADNKAASVALDSLINFEAVKYFNNEKYLADKYNGSLMNYRDSQIKVSQSLAFLNSGQNLIFTTALTAMMYMGCTGVIGGNLTVGDLVLINQLVFQLSVPLNFLGSVYRDLKQSLIDMETLFKLRKNEVKIKNAERPLMLPENVPYDITFENVTFGYHPDRKILKNASFTIPAGWKTAIVGSSGSGKSTILKLVFRFYDPESGRILINGRDIKEYDIDALRKVIGVVPQDTPLFNDTIWENVKFGRIDATDEEVITVVEKAQLAPLIKKLPQGFDTIVGERGLMISGGEKQRLAIARVLLKNARIMFFDEATSALDTHTEQALLRTIRDNFTSGSRTSVYIAHRLRTIADADKIIVLDNGRVREEGKH
B2: S. cerevisiae Atm1-Strep (ABC transporter of mitochondria 1), wild type (natural protein, UniProt P40416 92-690, looked up)
chain: LKDLFRYIWPKGNNKVRIRVLIALGLLISAKILNVQVPFFFKQTIDSMNIAWDDPTVALPAAIGLTILCYGVARFGSVLFGELRNAVFAKVAQNAIRTVSLQTFQHLMKLDLGWHLSRQTGGLTRAMDRGTKGISQVLTAMVFHIIPISFEISVVCGILTYQFGASFAAITFSTMLLYSIFTIKTTAWRTHFRRDANKADNKAASVALDSLINFEAVKYFNNEKYLADKYNGSLMNYRDSQIKVSQSLAFLNSGQNLIFTTALTAMMYMGCTGVIGGNLTVGDLVLINQLVFQLSVPLNFLGSVYRDLKQSLIDMETLFKLRKNEVKIKNAERPLMLPENVPYDITFENVTFGYHPDRKILKNASFTIPAGWKTAIVGSSGSGKSTILKLVFRFYDPESGRILINGRDIKEYDIDALRKVIGVVPQDTPLFNDTIWENVKFGRIDATDEEVITVVEKAQLAPLIKKLPQGFDTIVGERGLMISGGEKQRLAIARVLLKNARIMFFDEATSALDTHTEQALLRTIRDNFTSGSRTSVYIAHRLRTIADADKIIVLDNGRVREEGKHLELLAMPGSLYRELWTIQEDLDHLENELKDQQEL

Assays:
negative-stain EM = biological target: the molecule itself; assay: negative-stain EM
cryo-EM structure = biological target: the molecule itself; assay: cryo-EM structure

Protein	binding result (negative-stain EM)	binding result (cryo-EM structure)
B1	binds	–
B2	–	binds
